The test system of this series is Escherichia coli TOP10. Description: shrunken log2 fold change of peptide-encoding DNA abundance (4.5 h post-induction vs induction); higher = less antimicrobial activity (less host growth inhibition). Conditions: time post-induction: 4.5 h; library: site-saturation at positions 5, 18, 19, 20.
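Also: peptides expressed intracellularly from a pBAD plasmid library in pooled LB shake-flask culture, induced with 0.3% L-arabinose, DNA abundance read by NGS, three biological replicates, DESeq2 with apeglm shrinkage.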

Turning to RRIRSRPPRLPRPRPRPECSPRP, the “shrunken log2 fold change” value is 0.201. Regarding RRIRCRPPRLPRPRPRPDMTPRP, the “shrunken log2 fold change” value was -0.00325. In the case of RRIRMRPPRLPRPRPRPLWDPRP it was 0.437. Then RRIRARPPRLPRPRPRPDEDPRP, with 2.09; and RRIRARPPRLPRPRPRPAERPRP, with 0.301; and RRIRLRPPRLPRPRPRPQCKPRP, with -0.425.

For RRIRRRPPRLPRPRPRPECKPRP, the “shrunken log2 fold change” value is -0.0282. Then RRIRMRPPRLPRPRPRPPNTPRP, with 0.431; and RRIRMRPPRLPRPRPRPVMAPRP, with 0.266.

Regarding RRIRCRPPRLPRPRPRPIGCPRP, the “shrunken log2 fold change” value was -0.00449.

RRIRFRPPRLPRPRPRPYMFPRP: the “shrunken log2 fold change” value was -1.11. RRIRFRPPRLPRPRPRPDMCPRP: the “shrunken log2 fold change” value turned out to be 0.124.

For the sequence RRIRMRPPRLPRPRPRPGDGPRP, the “shrunken log2 fold change” value turned out to be 0.864. Then RRIRLRPPRLPRPRPRPRSEPRP, with 0.235; and RRIRHRPPRLPRPRPRPQFHPRP, with -0.153. Then RRIRKRPPRLPRPRPRPRALPRP, with 0.396; and RRIRYRPPRLPRPRPRPVWPPRP, with 9.23e-05.

Consider RRIRWRPPRLPRPRPRPWRIPRP, for which the “shrunken log2 fold change” value is -0.604. In the case of RRIRMRPPRLPRPRPRPQSWPRP it was 0.141; in that of RRIRWRPPRLPRPRPRPKFAPRP, 0.453; in that of RRIRMRPPRLPRPRPRPTWEPRP, 0.312. As for RRIRKRPPRLPRPRPRPFNTPRP, the “shrunken log2 fold change” value is -0.0902. RRIRSRPPRLPRPRPRPLSNPRP: the “shrunken log2 fold change” value was -0.00773. For RRIRVRPPRLPRPRPRPHLIPRP, the “shrunken log2 fold change” value was -0.352. Turning to RRIRPRPPRLPRPRPRPSFFPRP, the “shrunken log2 fold change” value amounted to 0.19. As for RRIRVRPPRLPRPRPRPTEFPRP, the “shrunken log2 fold change” value was -0.143.

With RRIRKRPPRLPRPRPRPTVDPRP, the “shrunken log2 fold change” value was -0.108. For the sequence RRIRYRPPRLPRPRPRPNRHPRP, the “shrunken log2 fold change” value was -0.614. Turning to RRIRRRPPRLPRPRPRPFWDPRP, the “shrunken log2 fold change” value was -0.0897. As for RRIRNRPPRLPRPRPRPSHLPRP, the “shrunken log2 fold change” value was -0.438. As for RRIRKRPPRLPRPRPRPLNFPRP, the “shrunken log2 fold change” value came to 0.103.

With RRIRCRPPRLPRPRPRPMANPRP, the “shrunken log2 fold change” value came out at 0.0226. Turning to RRIRSRPPRLPRPRPRPRWHPRP, the “shrunken log2 fold change” value stood at 0.111. Take RRIRMRPPRLPRPRPRPDPEPRP: the “shrunken log2 fold change” value was determined as 0.769.

Turning to RRIRSRPPRLPRPRPRPKNVPRP, the “shrunken log2 fold change” value was -0.29.

With RRIRMRPPRLPRPRPRPSPYPRP, the “shrunken log2 fold change” value was -0.0611.

With RRIRGRPPRLPRPRPRPACDPRP, the “shrunken log2 fold change” value was determined as 0.964. Regarding RRIRIRPPRLPRPRPRPVFMPRP, the “shrunken log2 fold change” value was -0.275.

As to RRIRNRPPRLPRPRPRPCPMPRP, the “shrunken log2 fold change” value is 0.151. As for RRIRGRPPRLPRPRPRPDDEPRP, the “shrunken log2 fold change” value is 1.27. As for RRIRMRPPRLPRPRPRPCNKPRP, the “shrunken log2 fold change” value is -0.372. As to RRIRTRPPRLPRPRPRPKQIPRP, the “shrunken log2 fold change” value came out at 0.0644. As to RRIRARPPRLPRPRPRPQILPRP, the “shrunken log2 fold change” value was -0.0605. RRIRARPPRLPRPRPRPNQPPRP: the “shrunken log2 fold change” value came out at 0.0397.

Regarding RRIRRRPPRLPRPRPRPNEVPRP, the “shrunken log2 fold change” value was -0.0332.

On to RRIRIRPPRLPRPRPRPIFAPRP, for which the “shrunken log2 fold change” value is -0.0891. For RRIRCRPPRLPRPRPRPTHNPRP, the “shrunken log2 fold change” value worked out at 0.124.

In the case of RRIRYRPPRLPRPRPRPCIDPRP, the “shrunken log2 fold change” value was -0.00448. Then RRIRIRPPRLPRPRPRPSTEPRP, with -0.388; and RRIRERPPRLPRPRPRPHVRPRP, with -0.105; and RRIRNRPPRLPRPRPRPTAMPRP, with 0.285. As for RRIRARPPRLPRPRPRPDLEPRP, the “shrunken log2 fold change” value amounted to 0.0744. Turning to RRIRCRPPRLPRPRPRPVQTPRP, the “shrunken log2 fold change” value was -0.0555. Regarding RRIRYRPPRLPRPRPRPKRNPRP, the “shrunken log2 fold change” value is -0.374. In the case of RRIRIRPPRLPRPRPRPCYIPRP, the “shrunken log2 fold change” value was -0.27. Take RRIRGRPPRLPRPRPRPWDGPRP: the “shrunken log2 fold change” value was 0.486. In the case of RRIRRRPPRLPRPRPRPAYKPRP it was 0.0139; in that of RRIRMRPPRLPRPRPRPEFVPRP, 0.383; in that of RRIRVRPPRLPRPRPRPMPIPRP, 0.055. In the case of RRIRHRPPRLPRPRPRPRERPRP, the “shrunken log2 fold change” value worked out at 0.392. Consider RRIRVRPPRLPRPRPRPCTCPRP, for which the “shrunken log2 fold change” value is -0.00748. As to RRIRCRPPRLPRPRPRPECMPRP, the “shrunken log2 fold change” value was 0.119. As for RRIRLRPPRLPRPRPRPPSTPRP, the “shrunken log2 fold change” value worked out at 0.00129.

Take RRIRGRPPRLPRPRPRPVGLPRP: the “shrunken log2 fold change” value came to 0.954. Regarding RRIRVRPPRLPRPRPRPKPGPRP, the “shrunken log2 fold change” value was determined as 0.507.

As to RRIRRRPPRLPRPRPRPVHKPRP, the “shrunken log2 fold change” value amounted to 0.092. In the case of RRIRLRPPRLPRPRPRPRASPRP it was 0.516. As for RRIRHRPPRLPRPRPRPDGGPRP, the “shrunken log2 fold change” value is -0.137. Turning to RRIRWRPPRLPRPRPRPDTRPRP, the “shrunken log2 fold change” value was -0.0523. RRIRPRPPRLPRPRPRPQAGPRP: the “shrunken log2 fold change” value stood at 0.00187. For RRIRRRPPRLPRPRPRPMNDPRP, the “shrunken log2 fold change” value was 0.338. On to RRIRWRPPRLPRPRPRPLMSPRP, for which the “shrunken log2 fold change” value was -0.0663. On to RRIRNRPPRLPRPRPRPNVQPRP, for which the “shrunken log2 fold change” value was -0.128.

As to RRIRDRPPRLPRPRPRPGCIPRP, the “shrunken log2 fold change” value was -0.158.

For the sequence RRIRRRPPRLPRPRPRPKMKPRP, the “shrunken log2 fold change” value amounted to 0.316. Take RRIRCRPPRLPRPRPRPSRTPRP: the “shrunken log2 fold change” value was found to be 0.0175. In the case of RRIRGRPPRLPRPRPRPWIMPRP, the “shrunken log2 fold change” value is -0.209. In the case of RRIRHRPPRLPRPRPRPAKKPRP, the “shrunken log2 fold change” value is 0.0694. As to RRIRKRPPRLPRPRPRPQRQPRP, the “shrunken log2 fold change” value came to 0.265. On to RRIRKRPPRLPRPRPRPQFWPRP, for which the “shrunken log2 fold change” value turned out to be 0.248.

RRIRKRPPRLPRPRPRPNAQPRP: the “shrunken log2 fold change” value was 0.842. As for RRIRQRPPRLPRPRPRPWREPRP, the “shrunken log2 fold change” value was -0.0373. For RRIRMRPPRLPRPRPRPFYEPRP, the “shrunken log2 fold change” value came out at 0.027. RRIRNRPPRLPRPRPRPDYYPRP: the “shrunken log2 fold change” value is -1.4.

For the sequence RRIRCRPPRLPRPRPRPNMFPRP, the “shrunken log2 fold change” value was -0.529. As to RRIRCRPPRLPRPRPRPMNVPRP, the “shrunken log2 fold change” value was -0.00117. For RRIRQRPPRLPRPRPRPPLWPRP, the “shrunken log2 fold change” value was 0.494. On to RRIRPRPPRLPRPRPRPCCAPRP, for which the “shrunken log2 fold change” value was found to be 0.0786. Consider RRIRSRPPRLPRPRPRPICDPRP, for which the “shrunken log2 fold change” value came to 0.228. In the case of RRIRRRPPRLPRPRPRPPNLPRP it was 0.593.

In the case of RRIRHRPPRLPRPRPRPVPDPRP, the “shrunken log2 fold change” value was -0.526.

Source of the values: the supplement of paper PMC9112550, “Optimization of the antimicrobial peptide Bac7 by deep mutational scanning” (BMC Biology, 2022).
